Assay results taken from patent publication US20180112002A1 (University of California, published 2018).

B1: ARHGEF6 protein (Rho guanine nucleotide exchange factor 6) (other)
chain: MNPEEQIVTWLISLGVLESPKKTICDPEEFLKSSLKNGVVLCKLINRLMPGSVEKFCLDPQTEADCINNINDFLKGCATLQVEIFDPDDLYSGVNFSKVLSTLLAVNKATEDQLSERPCGRSSSLSAANTSQTNPQGAVSSTVSGLQRQSKTVEMTENGSHQLIVKARFNFKQTNEDELSVCKGDIIYVTRVEEGGWWEGTLNGRTGWFPSNYVREIKSSERPLSPKAVKGFETAPLTKNYYTVVLQNILDTEKEYAKELQSLLVTYLRPLQSNNNLSTVEVTSLLGNFEEVCTFQQTLCQALEECSKFPENQHKVGGCLLSLMPHFKSMYLAYCANHPSAVNVLTQHSDELEQFMENQGASSPGILILTTNLSKPFMRLEKYVTLLQELERHMEDTHPDHQDILKAIVAFKTLMGQCQDLRKRKQLELQILSEPIQAWEGEDIKNLGNVIFMSQVMVQYGACEEKEERYLMLFSNVLIMLSASPRMSGFIYQGKIPIAGTVVTRLDEIEGNDCTFEITGNTVERIVVHCNNNQDFQEWLEQLNRLIRGPASCSSLSKTSSSSCSAHSSFSSTGQPRGPLEPPQIIKPWSLSCLRPAPPLRPSAALGYKERMSYILKESSKSPKTMKKFLHKRKTERKPSEEEYVIRKSTAALEEDAQILKVIEAYCTSANFQQGHGSSTRKDSIPQVLLPEEEKLIIEETRSNGQTIMEEKSLVDTVYALKDEVRELKQENKRMKQCLEEELKSRRDLEKLVRRLLKQTDECIRGESSSKTSILP
notes: Endogenous protein of CLL and MEC1 cells
B2: CD5 (receptor, human, UniProt P06127 25-495, looked up)
chain: RLSWYDPDFQARLTRSNSKCQGQLEVYLKDGWHMVCSQSWGRSSKQWEDPSQASKVCQRLNCGVPLSLGPFLVTYTPQSSIICYGQLGSFSNCSHSRNDMCHSLGLTCLEPQKTTPPTTRPPPTTTPEPTAPPRLQLVAQSGGQHCAGVVEFYSGSLGGTISYEAQDKTQDLENFLCNNLQCGSFLKHLPETEAGRAQDPGEPREHQPLPIQWKIQNSSCTSLEHCFRKIKPQKSGRVLALLCSGFQPKVQSRLVGGSSICEGTVEVRQGAQWAALCDSSSARSSLRWEEVCREQQCGSVNSYRVLDAGDPTSRGLFCPHQKLSQCHELWERNSYCKKVFVTCQDPNPAGLAAGTVASIILALVLLVVLLVVCGPLAYKKLVKKFRQKKQRQWIGPTGMNQNMSFHRNHTATVRSHAENPTASHVDNEYSQPPRNSHLSAYPALEGALHRSSMQPDNSSDSDYDLHGAQRL
notes: whole, on cells; Negative control for co-localization
B3: CD19 (receptor, human, UniProt P15391 20-556, looked up)
chain: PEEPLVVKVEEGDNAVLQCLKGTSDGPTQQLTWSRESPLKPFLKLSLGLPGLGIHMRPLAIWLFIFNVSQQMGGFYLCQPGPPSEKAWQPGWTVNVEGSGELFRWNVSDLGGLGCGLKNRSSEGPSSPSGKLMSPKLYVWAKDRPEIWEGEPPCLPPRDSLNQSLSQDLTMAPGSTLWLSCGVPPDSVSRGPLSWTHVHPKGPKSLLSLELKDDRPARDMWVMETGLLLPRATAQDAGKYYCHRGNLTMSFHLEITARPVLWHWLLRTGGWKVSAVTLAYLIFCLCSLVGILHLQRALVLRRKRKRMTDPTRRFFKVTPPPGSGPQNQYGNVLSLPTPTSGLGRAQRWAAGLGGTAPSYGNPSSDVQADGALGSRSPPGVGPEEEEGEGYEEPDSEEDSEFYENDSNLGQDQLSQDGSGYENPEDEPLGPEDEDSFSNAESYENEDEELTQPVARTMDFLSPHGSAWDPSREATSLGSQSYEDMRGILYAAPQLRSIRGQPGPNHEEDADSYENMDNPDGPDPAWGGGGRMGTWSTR
notes: as for B2

What was measured:
[1] = molecular target: T1, ROR2 protein (tyrosine-protein kinase transmembrane receptor ROR2) (human, UniProt Q01974 34-943); assay: fluorescence confocal microscopy, Wnt5a-treated CLL cells
T1 construct: Endogenous ROR2 of CLL cells, normal B cells and MEC1 cells; also called NTRKR2

CD19 = molecular target: B3; assay: fluorescence confocal microscopy, CLL cells
Protocol: (§1) FIG. 9. Negative control for co-localization analysis by confocal microscopy. CLL cells were stained with anti-CD5-Alexa-647 and anti-CD19-Alexa-488; anti-ROR1-Alexa-647 and anti-CD19-Alexa-488; or anti-CD5-Alexa-647 and anti-ROR2-Alexa-488 for evaluation by confocal microscopy (Scale bar: 2 μm). There is no co-localization between CD5 and CD19, ROR1 and CD19, or CD5 and ROR2.
(§2) However, it was difficult to detect co-localization of ROR1 with ROR2 in cultured CLL cells unless they were treated with exogenous Wnt5a (FIG. 3b).

[2] = molecular target: T1, ROR2 protein (tyrosine-protein kinase …); assay: fluorescence confocal microscopy, CLL cells
Protocol: as §1, §2

[3] = molecular target: T2, ROR1 protein (tyrosine-protein kinase transmembrane receptor ROR1) (human, UniProt Q01973 30-937); assay: fluorescence confocal microscopy, CLL cells
T2 construct: Endogenous ROR1 of CLL patients' cells, and full-length ROR1 expressed from a vector in the human CLL line MEC1 (MEC1-ROR1); also called NTRKR1; full-length ROR1
Protocol: as §1, §2

T1 sequence (Q01974 34-943 limits assumed): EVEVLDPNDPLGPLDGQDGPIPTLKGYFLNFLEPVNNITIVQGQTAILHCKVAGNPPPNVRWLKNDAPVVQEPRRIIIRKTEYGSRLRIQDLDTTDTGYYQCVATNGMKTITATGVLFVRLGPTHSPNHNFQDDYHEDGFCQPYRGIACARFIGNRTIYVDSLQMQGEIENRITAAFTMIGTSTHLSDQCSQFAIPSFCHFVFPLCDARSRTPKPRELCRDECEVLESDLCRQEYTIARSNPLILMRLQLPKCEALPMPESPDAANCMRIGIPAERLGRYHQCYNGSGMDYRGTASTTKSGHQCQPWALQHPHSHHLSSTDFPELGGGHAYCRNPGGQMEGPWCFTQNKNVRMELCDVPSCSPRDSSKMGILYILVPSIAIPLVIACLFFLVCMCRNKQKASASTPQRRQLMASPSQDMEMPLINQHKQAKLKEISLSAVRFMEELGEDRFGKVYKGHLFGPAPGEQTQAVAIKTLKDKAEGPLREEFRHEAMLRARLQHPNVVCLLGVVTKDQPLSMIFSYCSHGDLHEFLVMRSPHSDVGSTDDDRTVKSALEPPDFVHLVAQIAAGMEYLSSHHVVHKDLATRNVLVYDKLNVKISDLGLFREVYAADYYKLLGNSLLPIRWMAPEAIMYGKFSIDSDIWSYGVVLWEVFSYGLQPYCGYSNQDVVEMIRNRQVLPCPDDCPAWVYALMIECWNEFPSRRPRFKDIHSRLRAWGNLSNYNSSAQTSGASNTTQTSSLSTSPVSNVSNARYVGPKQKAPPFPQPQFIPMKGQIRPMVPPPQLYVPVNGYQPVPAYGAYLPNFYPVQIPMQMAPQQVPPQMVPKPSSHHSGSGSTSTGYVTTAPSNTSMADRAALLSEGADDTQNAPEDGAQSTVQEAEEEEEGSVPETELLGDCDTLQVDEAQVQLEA
T2 sequence (Q01973 30-937 limits assumed): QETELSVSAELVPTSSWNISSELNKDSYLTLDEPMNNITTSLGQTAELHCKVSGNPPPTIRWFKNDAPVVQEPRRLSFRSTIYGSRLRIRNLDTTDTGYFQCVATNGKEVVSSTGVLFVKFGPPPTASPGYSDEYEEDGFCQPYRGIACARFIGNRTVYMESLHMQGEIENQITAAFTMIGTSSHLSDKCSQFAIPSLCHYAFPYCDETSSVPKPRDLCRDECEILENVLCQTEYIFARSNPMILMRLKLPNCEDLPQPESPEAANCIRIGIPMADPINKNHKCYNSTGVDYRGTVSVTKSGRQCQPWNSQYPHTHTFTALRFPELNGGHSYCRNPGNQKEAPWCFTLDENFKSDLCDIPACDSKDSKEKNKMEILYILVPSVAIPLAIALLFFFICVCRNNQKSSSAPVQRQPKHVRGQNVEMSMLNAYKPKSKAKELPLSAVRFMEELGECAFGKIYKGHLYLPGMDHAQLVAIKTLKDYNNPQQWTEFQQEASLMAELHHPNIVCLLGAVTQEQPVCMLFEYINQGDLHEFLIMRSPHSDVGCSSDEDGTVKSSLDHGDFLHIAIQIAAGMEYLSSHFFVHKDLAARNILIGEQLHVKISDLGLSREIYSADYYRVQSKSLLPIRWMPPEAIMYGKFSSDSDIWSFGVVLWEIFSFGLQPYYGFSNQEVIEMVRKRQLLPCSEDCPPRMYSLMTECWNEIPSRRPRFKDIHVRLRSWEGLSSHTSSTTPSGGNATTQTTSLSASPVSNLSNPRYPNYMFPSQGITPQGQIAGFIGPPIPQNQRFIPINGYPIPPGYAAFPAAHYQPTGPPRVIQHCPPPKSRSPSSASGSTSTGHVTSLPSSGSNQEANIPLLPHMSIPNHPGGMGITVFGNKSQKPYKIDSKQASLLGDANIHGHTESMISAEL

Binder: B1
binding result [1]: binds

Binder: B2
binding result (CD19): no binding
binding result [2]: no binding

Binder: B3
binding result [3]: no binding
